For orientation: stoichiometry N means the number of molecules, sites or subunits per partner or assembly.

The results in this text go back to article PMC9391305.

The experiment has as its target endogenous PKM2 of murine PDA^T and PDA^M cells (mouse (endogenous in PDA^T and PDA^M cells)) (UniProt P52480). Description: cross-linking.

Sequence of endogenous PKM2 of murine PDA^T and PDA^M cells, P52480 1-531 (enzyme; other documents disagree on this pair) (P52480 whole entry): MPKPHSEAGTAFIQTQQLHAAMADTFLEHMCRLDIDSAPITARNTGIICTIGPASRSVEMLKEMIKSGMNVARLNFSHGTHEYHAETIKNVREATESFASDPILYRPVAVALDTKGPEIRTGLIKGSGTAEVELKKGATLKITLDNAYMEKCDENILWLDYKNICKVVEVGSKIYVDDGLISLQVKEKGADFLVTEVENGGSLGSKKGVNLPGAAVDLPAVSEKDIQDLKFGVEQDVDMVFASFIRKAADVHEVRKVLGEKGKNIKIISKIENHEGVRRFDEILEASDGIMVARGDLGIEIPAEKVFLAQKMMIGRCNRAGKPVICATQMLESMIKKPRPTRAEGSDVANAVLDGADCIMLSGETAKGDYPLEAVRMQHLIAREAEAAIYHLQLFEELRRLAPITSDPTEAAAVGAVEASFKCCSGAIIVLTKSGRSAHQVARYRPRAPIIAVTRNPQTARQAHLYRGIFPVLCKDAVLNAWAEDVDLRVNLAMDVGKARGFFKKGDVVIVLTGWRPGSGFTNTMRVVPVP

As to “endogenous PKM2 of murine PDA^T and PDA^M cells, P52480 1-531 (enzyme; other documents disagree on this pair)”, the stoichiometry N came out at 4.
